Results on 167 variants are retold here after the Human Domainome abundance scans (Beltran et al. 2025).

Sequences and labels used below:
B1: Membrane-associated guanylate kinase, WW and PDZ domain-containing protein 2, residues 296 to 340; numbered along this chain, Q86UL8 (parent)
chain: EDNEEPDPLPDNWEMAYTEKGEVYFIDHNTKTTSWLDPRLAKKAK

± gives the uncertainty stated by the source.

The variants in the data set derive from B1. The experiment in a line: abundance fitness (aPCA) (normalised: wild type 0, dead -1); higher = more abundant; growth selection in yeast, the domain comes from the species named. The settings on record: Homo sapiens.
With H28Q, the abundance fitness was -0.267 ± 0.06.

For the variant H28R, the abundance fitness is -0.243 ± 0.045.

For the variant H28Y, the abundance fitness is -0.525 ± 0.079.

Regarding H28W, the abundance fitness was -0.334 ± 0.044.

As to W35Q, the abundance fitness is -0.365 ± 0.065.

With W35A, the abundance fitness is -0.489 ± 0.042.

For the variant W35K, the abundance fitness is -0.494 ± 0.078.

For the variant W35S, the abundance fitness was -0.436 ± 0.054.

With W35D, the abundance fitness is -0.547 ± 0.1.

As to E19K, the abundance fitness is -0.031 ± 0.07.

Turning to E19Q, the abundance fitness worked out at 0.02 ± 0.097.

Consider E19I, for which the abundance fitness was -0.117 ± 0.1.

As to E19P, the abundance fitness is -0.013 ± 0.062.

Take E19R: the abundance fitness was -0.104 ± 0.041.

Regarding E19D, the abundance fitness is -0.025 ± 0.086.

On to N12W, for which the abundance fitness was -0.271 ± 0.091.

Consider N12C, for which the abundance fitness was -0.163 ± 0.12.

As for N12R, the abundance fitness was -0.044 ± 0.051.

As for F25V, the abundance fitness is -1.05 ± 0.08.

As for F25W, the abundance fitness was -0.103 ± 0.09.

Consider F25L, for which the abundance fitness was -0.896 ± 0.064.

As to F25G, the abundance fitness is -0.75 ± 0.054.

As for F25N, the abundance fitness is -0.756 ± 0.1.

Take F25K: the abundance fitness was -0.637 ± 0.12.

As to F25E, the abundance fitness was -0.661 ± 0.14.

Consider M15L, for which the abundance fitness was -0.026 ± 0.06.

With M15C, the abundance fitness is -0.127 ± 0.095.

For M15G, the abundance fitness is -0.459 ± 0.11.

As to M15V, the abundance fitness is -0.121 ± 0.084.

Regarding T33E, the abundance fitness is -0.655 ± 0.06.

As for T33W, the abundance fitness was -0.763 ± 0.056.

With T33L, the abundance fitness was -0.635 ± 0.075.

For the variant T33I, the abundance fitness is -0.507 ± 0.11.

As to T33D, the abundance fitness is -0.848 ± 0.067.

As to T33Q, the abundance fitness was -0.637 ± 0.068.

Consider T33V, for which the abundance fitness is -0.272 ± 0.046.

In the case of P38V, the abundance fitness was -0.979 ± 0.26.

With L40S, the abundance fitness is -0.022 ± 0.057.

For L40P, the abundance fitness came to 0.043 ± 0.056.

Take L40K: the abundance fitness is 0.091 ± 0.077.

On to L40E, for which the abundance fitness amounted to 0.034 ± 0.088.

For K43A, the abundance fitness turned out to be 0.062 ± 0.085.

As to K43F, the abundance fitness was -0.142 ± 0.093.

Turning to K43I, the abundance fitness was -0.139 ± 0.48.

With K20Q, the abundance fitness is 0.018 ± 0.055.

With K20E, the abundance fitness came to 0.027 ± 0.067.

As for K20L, the abundance fitness was -0.078 ± 0.052.

For E14Q, the abundance fitness was determined as 0.032 ± 0.12.

Turning to E4P, the abundance fitness was found to be 0.138 ± 0.18.

For the variant E4A, the abundance fitness amounted to 0.016 ± 0.056.

On to I26H, for which the abundance fitness was -0.618 ± 0.077.

Consider I26W, for which the abundance fitness is -0.691 ± 0.1.

For the variant I26F, the abundance fitness is -0.549 ± 0.17.

Consider I26T, for which the abundance fitness is -0.733 ± 0.35.

For I26R, the abundance fitness was -0.379 ± 0.056.

Consider D27V, for which the abundance fitness is -1.39 ± 0.1.

On to D27E, for which the abundance fitness is -0.487 ± 0.072.

Take D27G: the abundance fitness was -0.937 ± 0.074.

Turning to R39W, the abundance fitness is -0.607 ± 0.059.

In the case of R39H, the abundance fitness was -0.419 ± 0.13.

In the case of R39V, the abundance fitness is -0.52 ± 0.045.

In the case of R39N, the abundance fitness is -0.289 ± 0.15.

For the variant N3D, the abundance fitness is -0.258 ± 0.061.

On to N3E, for which the abundance fitness is -0.173 ± 0.048.

N3H: the abundance fitness was found to be 0.058 ± 0.097.

As for N3L, the abundance fitness stood at 0.009 ± 0.045.

N3M: the abundance fitness came to 0.083 ± 0.055.

For the variant N3Q, the abundance fitness amounted to 0.055 ± 0.06.

In the case of N3P, the abundance fitness is -0.109 ± 0.092.

P6L: the abundance fitness was determined as 0.014 ± 0.044.

P6H: the abundance fitness was determined as 0.091 ± 0.068.

Take P6S: the abundance fitness was determined as 0.003 ± 0.049.

With P6G, the abundance fitness was -0.004 ± 0.037.

For the variant P6V, the abundance fitness was 0.034 ± 0.044.

For K45W, the abundance fitness is -0.01 ± 0.087.

In the case of K45Q, the abundance fitness is 0.1 ± 0.21.

As to K45G, the abundance fitness was 0.081 ± 0.067.

Consider K31P, for which the abundance fitness was -0.675 ± 0.076.

With K31S, the abundance fitness was -0.114 ± 0.054.

For K31E, the abundance fitness was -0.08 ± 0.043.

Take K31T: the abundance fitness is -0.355 ± 0.071.

Consider K31V, for which the abundance fitness is -0.473 ± 0.048.

Turning to K31L, the abundance fitness is -0.155 ± 0.048.

As for D2C, the abundance fitness was found to be 0.256 ± 0.12.

As to D2Q, the abundance fitness is 0.08 ± 0.14.

Regarding D2L, the abundance fitness was found to be 0.072 ± 0.064.

Consider D2A, for which the abundance fitness worked out at 0.125 ± 0.071.

For D2W, the abundance fitness is -0.029 ± 0.064.

On to D2N, for which the abundance fitness was 0.072 ± 0.053.

Regarding D7V, the abundance fitness was determined as 0.134 ± 0.06.

In the case of D7R, the abundance fitness turned out to be 0.044 ± 0.058.

With D7W, the abundance fitness was 0.01 ± 0.057.

On to D7S, for which the abundance fitness was 0.04 ± 0.07.

Consider T32R, for which the abundance fitness is -0.269 ± 0.05.

Turning to T32Q, the abundance fitness was -0.199 ± 0.067.

On to T32S, for which the abundance fitness is -0.08 ± 0.064.

In the case of Y17C, the abundance fitness is 0.004 ± 0.067.

Turning to Y17G, the abundance fitness is -0.349 ± 0.072.

For the variant Y17I, the abundance fitness turned out to be 0.017 ± 0.1.

As for Y17K, the abundance fitness was -0.048 ± 0.1.

For Y17H, the abundance fitness was 0.066 ± 0.089.

Turning to N29V, the abundance fitness is -0.051 ± 0.069.

N29R: the abundance fitness was -0.082 ± 0.05.

In the case of N29W, the abundance fitness was -0.151 ± 0.056.

For N29E, the abundance fitness is -0.081 ± 0.091.

For the variant N29Y, the abundance fitness was -0.122 ± 0.13.

N29A: the abundance fitness stood at 0.022 ± 0.069.

N29T: the abundance fitness was -0.02 ± 0.058.

A44E: the abundance fitness is 0.07 ± 0.064.

Turning to A44V, the abundance fitness is -0.009 ± 0.064.

For D11V, the abundance fitness was -0.064 ± 0.051.

Regarding D11L, the abundance fitness amounted to 0.073 ± 0.063.

Take D11T: the abundance fitness amounted to 0.042 ± 0.056.

With D11S, the abundance fitness worked out at 0.421 ± 0.18.

As to A16F, the abundance fitness was -0.709 ± 0.23.

Turning to A16T, the abundance fitness was -0.335 ± 0.071.

Turning to A16R, the abundance fitness was -0.127 ± 0.052.

In the case of A16L, the abundance fitness was -0.337 ± 0.055.

T18A: the abundance fitness is -0.308 ± 0.061.

For T18R, the abundance fitness is -0.91 ± 0.073.

For T18L, the abundance fitness was -0.514 ± 0.064.

Turning to T18Y, the abundance fitness was -0.93 ± 0.25.

On to K42Y, for which the abundance fitness is -0.033 ± 0.11.

On to K42R, for which the abundance fitness came out at 0.021 ± 0.046.

Turning to K42N, the abundance fitness amounted to 0.032 ± 0.18.

For K42D, the abundance fitness was -0.05 ± 0.18.

With S34L, the abundance fitness was -1.14 ± 0.15.

As to S34V, the abundance fitness is -0.758 ± 0.12.

With S34W, the abundance fitness is -0.784 ± 0.26.

As for S34E, the abundance fitness is -0.826 ± 0.12.

As to G21L, the abundance fitness was -0.329 ± 0.084.

For G21H, the abundance fitness was -0.081 ± 0.14.

For G21W, the abundance fitness was -0.593 ± 0.091.

Turning to G21D, the abundance fitness is -0.169 ± 0.076.

Consider G21F, for which the abundance fitness was -0.33 ± 0.086.

In the case of G21I, the abundance fitness is -0.865 ± 0.25.

Take G21V: the abundance fitness is -0.975 ± 0.072.

As for G21Q, the abundance fitness is -0.047 ± 0.055.

For the variant P8M, the abundance fitness amounted to 0.019 ± 0.074.

On to P8A, for which the abundance fitness was -0.014 ± 0.054.

P8H: the abundance fitness is -0.105 ± 0.058.

On to P8I, for which the abundance fitness is -0.156 ± 0.096.

As for P8L, the abundance fitness stood at 0.021 ± 0.058.

Consider P8S, for which the abundance fitness was -0.056 ± 0.056.

Turning to P8G, the abundance fitness was -0.03 ± 0.044.

On to W13V, for which the abundance fitness is -0.32 ± 0.17.

As to W13L, the abundance fitness was -0.385 ± 0.056.

Consider W13S, for which the abundance fitness is -0.556 ± 0.069.

W13R: the abundance fitness was -0.642 ± 0.087.

Regarding E22A, the abundance fitness was -0.228 ± 0.052.

Turning to E22Q, the abundance fitness is -0.084 ± 0.065.

Consider E22M, for which the abundance fitness was -0.314 ± 0.061.

With E22F, the abundance fitness was -0.645 ± 0.43.

Turning to E22D, the abundance fitness is -0.091 ± 0.05.

Regarding E22G, the abundance fitness is -0.359 ± 0.042.

Regarding E22Y, the abundance fitness is -0.404 ± 0.067.

Regarding E22V, the abundance fitness was -0.325 ± 0.048.

On to D37A, for which the abundance fitness is -0.431 ± 0.042.

In the case of D37N, the abundance fitness was -0.184 ± 0.4.

With A41L, the abundance fitness is -0.297 ± 0.29.

For the variant A41F, the abundance fitness was -0.113 ± 0.085.

In the case of T30P, the abundance fitness was -1.17 ± 0.076.

For T30V, the abundance fitness was -0.386 ± 0.049.

Take T30A: the abundance fitness is -0.107 ± 0.042.

In the case of T30M, the abundance fitness was -0.388 ± 0.34.

For T30L, the abundance fitness was -0.221 ± 0.058.

On to T30S, for which the abundance fitness turned out to be 0.122 ± 0.075.
